# Laboratory results published in patent publication US20030199438A1, “Method for identification of proteins from intracellular bacteria” (priority 2001, published 2003).
# “Also recorded” adds a separate entry of the source.
# B1: DT9: C. trachomatis D protein spot identified as CT610 (lower row) (protein)
# chain: MNFLDQLDLIIQNKHMLEHTFYVKWSKGELTKEQLQAYAKDYYLHIKAFPKYLSAIHSRCDDLEARKLLLDNLMDEENGYPNHIDLWKQFVFALGVTPEELEAHEPSEAAKAKVATFMRWCTGDSLAAGVAALYSYESQIPRIAREKIRGLTEYFGFSNPEDYAYFTEHEEADVRHAREEKALIEMLLKDDADKVLEASQEVTQSLYGFLDSFLDPGTCCSCHQSY
# B2: DT10: C. trachomatis D protein spot identified as CT610 (lower row) (protein)
# chain: B1 chain
# B3: DT7: C. trachomatis D protein spot identified as CT610 (upper row) (protein)
# chain: B1 chain
# B4: DT11: C. trachomatis D protein spot identified as CT610 (lower row) (protein)
# chain: B1 chain
# B5: DT4: C. trachomatis D protein spot, C-terminal fragment of CT858 (protein)
# chain: GYNIGSTDGFLPVIGPVIWESEGLFRAYISSVTDGDGKSHKVGFLRIPTYSWQDMEDFDPSGPPPWEEFAKIIQVFSSNTEALIIDQTNNPGGSVLYLYALLSMLTDRPLELPKHRMILTQDEVVDALDWLTLLENVDTNVESRLALGDNMEGYTVDLQVAEYLKSFGRQVLNCWSKGDIELSTPIPLFGFEKIHPHPRVQYSKPICVLINEQDFSCADFFPVVLKDNDRALIVGTRTAGAGGFVFNVQFPNRTGIKTCSLTGSLAVREHGAFIENIGVEPHIDLPFTANDIRYKGYSEYLDKVKKLVCQLINNDGTIILAEDGSF
# B6: DT48: C. trachomatis D protein spot, N-terminal fragment of CT858 (protein)
# chain: IHSPVQGESLVCKNALQDLSFLEHLLQVKYAPKTWKEQYLGWDLVQSSVSAQQKLRTQENPSTSFCQQVLADFIGGLNDFHAGVTFFAIESAYLPYTVQKSSDGRFYFVDIMTFSSEIRVGDELLEVDGAPVQDVLATLYGSNHKGTAAEESAALRTLFSRMASLGHKVPSGRTTLKIRRPFGTTREVRVKWRYVPEGVGDLATIAPSIRAPQLQKSM
# B7: DT8: novel 7.2 kDa C. trachomatis specific protein, SEQ ID NO:1, not annotated in genome (protein, listed as Chlamydia trachomatis)
# chain: MQHTIMLSLENDNDKLASMMDRVVAASSSILSASKDSESNRQFTISKAPDKEAPCRVSYVAASALSE
# B8: CT858: C. trachomatis 67 kDa protein, fragments DT4 (C-terminal) and DT48 (N-terminal) (protein)
# chain: MKMNRIWLLLLTFSSAIHSPVQGESLVCKNALQDLSFLEHLLQVKYAPKTWKEQYLGWDLVQSSVSAQQKLRTQENPSTSFCQQVLADFIGGLNDFHAGVTFFAIESAYLPYTVQKSSDGRFYFVDIMTFSSEIRVGDELLEVDGAPVQDVLATLYGSNHKGTAAEESAALRTLFSRMASLGHKVPSGRTTLKIRRPFGTTREVRVKWRYVPEGVGDLATIAPSIRAPQLQKSMRSFFPKKDDAFHRSSSLFYSPMVPHFWAELRNHYATSGLKSGYNIGSTDGFLPVIGPVIWESEGLFRAYISSVTDGDGKSHKVGFLRIPTYSWQDMEDFDPSGPPPWEEFAKIIQVFSSNTEALIIDQTNNPGGSVLYLYALLSMLTDRPLELPKHRMILTQDEVVDALDWLTLLENVDTNVESRLALGDNMEGYTVDLQVAEYLKSFGRQVLNCWSKGDIELSTPIPLFGFEKIHPHPRVQYSKPICVLINEQDFSCADFFPVVLKDNDRALIVGTRTAGAGGFVFNVQFPNRTGIKTCSLTGSLAVREHGAFIENIGVEPHIDLPFTANDIRYKGYSEYLDKVKKLVCQLINNDGTIILAEDGSF
# Tested on: host cell proteasome
# Test: Pulse chase studies in combination with proteasome inhibitors (2D-PAGE)
# Format: cell-based, C. trachomatis D infected cells
# Parameters: key to Affected by MG115 / Affected by MG132: +: turnover times is prolonged by treatment with different proteasome inhibitors during labelling and chase
# Conditions: labelled 22-24 h.p.i., chased 24-28 h.p.i. with MG132 (10-100 μM; 20 μM in FIG. 6)
# Description: (§1) To label chlamydial proteins for two hour periods, infected cell cultures were incubated in a medium containing RPMI 1640, […] gentamycin, 40 μg/ml cycloheximide, 100 μCi/ml [35S]-methionine/cysteine (Promix, Amersham Pharmacia Biotech, Uppsala, Sweden) as described previously (Shaw et al., 1999,2000) [18.] [19.]. After labelling the labelling medium was changed to normal growth medium following two washes in normal growth medium and the infected cells were harvested at different points in time after labelling. Similarly, labelled EB proteins were obtained by allowing the Chlamydia to grow until 72 h.p.i. after the two hour labelling periods. The labelled EB were then harvested and purified using two consecutive steps of density gradient ultracentrifugation essentially as described for C. trachomatis in (Schacter and Wyrick, 1994) [22.]and for C. pneumoniae (Knudsen et al. 1999 [17.]). Proteins in the EB preparation and pulse chase preparation were labelled at the same intervals as proteins from the whole cell lysate preparation to facilitate correct 2D-PAGE protein profile comparison.
# Cell permeable proteasome inhibitors are added to the infected cell cultures during the labelling and chase period and the turnover time of proteins compared to that observed for labelling/chase without proteasome inhibitors added. Proteins were labelled in the presence or absence of 10-100 μM of the proteasome inhibitor MG-132 from 22-24 h.p.i. The labelling medium was then replaced with growth medium with or without MG132 after two washes in normal growth medium and chased from 24 h.p.i. to 28 h.p.i. Cell lysates were run on 2D-PAGE(IPG) and compared to controls without MG-132. and to gels with proteins harvested immediately after labelling (FIGS. 6A, B and C).
# The invention includes the use of several other proteasome inhibitors (e.g. MG115, MG262, PSI and lactocystein), which inhibit different parts of the catalytic activity of the proteasome, which may elucidate other proteins that are degraded in the proteasome (Table IV).
row,Molecule,level on chased+MG132 gels compared to controls
1,B1,significantly greater; also recorded: higher; also recorded: significantly increased
2,B2,significantly greater; also recorded: higher; also recorded: significantly increased
3,B3,not significantly affected
4,B4,significantly greater; also recorded: higher; also recorded: significantly increased

# Same assay, conditions: proteasome inhibitors added during the chase period
row,Molecule,turnover time upon addition of proteasome inhibitors
1,B1,prolonged
2,B2,prolonged
3,B4,prolonged

# Same assay, conditions: turnover time of C. trachomatis D protein; inhibitor during labelling and chase
Molecule,Affected by MG115,Affected by MG132
B1,+,+
B2,+,+
B4,+,+

# Tested on: host cell proteasome
# Test: Immunoblotting with PAb255 against CT610 of MG132 treated infected cells
# Format: cell-based, C. trachomatis D infected cells
# Conditions: MG132 for 6 hours prior to harvesting at 30 h.p.i.
# Description: In order to confirm that the PAbs recognized the correct vaccine candidates and to visualize potential post translational modifications or processing, 2D-PAGE immunoblotting were performed. 500 μg unlabelled and 2×10^6 cpm labelled C. trachomatis D or C. pneumoniae protein from whole cell lysates was separated by 2D-PAGE, and proteins were electroblotted on to PVDF membranes. Immunostaining was carried out using a 1/5001/1000 dilution of the PAbs in a buffer containing 150 mM NaCl (or in high salt, 400 mM), 20 mM Tris, 0.2% w/v gelatin, 0.05% v/v Tween 20 (Bio-Rad) and 2% v/v normal goat serum (Dako, Glostrup Denmark).
# The secondary antibody used was alkaline phosphatase-conjugated goat anti-rabbit IgG (Bio-Rad) diluted 1/2000 in antibody buffer. Blots were stained with 5-bromo-4-chloro-3-indolylphosphate toluidium (BCIP)/nitroblue tetrazolium (NBT) (Bio-Rad) until a clear reaction was detected. Immunoblots were computer scanned and subsequently exposed to X-ray films for approximately 8 days. Melanie II Software was used in order to compare immunostained proteins with their [35S]-labelled counterparts.
# DT7 was identified as CT610 and was located just above DT9, DT10, DT11 and DT12 (FIG. 6A). IMB with PAb255 against CT610 on 2D-gel blots (FIG. 7C1) of whole cell lysates clearly reacted with two rows of spots, one row representing DT7 and the other row representing DT9, DT10, DT11 and DT12. CT610 is therefore present in different isoforms presumably due to different posttranslational modification and processing.
# IMB with PAb255 was performed on ordinary SDS-PAGE PVDF blots with protein from whole cell lysates treated for six hours in the presence or absence of MG132, respectively.
row,Molecule,abundance on 2D-gel immunoblot with PAb255 after MG132 treatment
1,B1,clear relative increase; also recorded: clearly increased
2,B2,clear relative increase; also recorded: clearly increased
3,B4,clearly increased

# Same assay, conditions: MG132 for 6 hours prior to harvesting at 30 h.p.i.; listed as DT111
row,Molecule,abundance on 2D-gel immunoblot with PAb255 after MG132 treatment
1,B4,clear relative increase

# Same assay, conditions: six hours with or without MG132 (50 μM), harvested 30 h.p.i.
row,Molecule,"level of band on SDS-PAGE immunoblot with PAb255, MG132 treated vs untreated"
1,B3,not significantly altered

# Tested on: C. trachomatis D infected cell cultures
# Test: Pulse chase studies of candidates for secreted proteins (2D-PAGE)
# Format: cell-based
# Conditions: not given
# Description: as §1
# In order to estimate the time in which the identified candidate proteins could be present inside infected cells, the invention provides a series of pulse chase studies. In the following examples infected cell cultures were [35S]-labelled from 22-24 hours. After the labelling period the medium was changed to normal RPMI growth medium without [35S]-methionine and cells were harvested at different times after labelling.
row,Molecule,turnover time in pulse chase studies
1,B1,short
2,B2,short
3,B3,short
4,B4,short
5,B5,long
6,B6,long
7,B7,short
8,B8,long

# Same assay, conditions: labelled 22-24 h.p.i., chased
row,Molecule,turnover time (time present after synthesis)
1,B7,< 6 h
